1 substance from patent publication US20240316196A1, “METHODS AND COMPOSITIONS FOR DIFFERENTIATION OF PLURIPOTENT STEM CELLS AND DERIVED NATURAL KILLER CELLS” (NUWACELL BIOTECHNOLOGIES CO., LTD., priority 2022, published 2024) can be followed below.

The test system of one data set is K562 cells. Kind of data set: Cytotoxicity of Stage 3 iNK cells towards K562 cells (CFSE/7AAD assay). Type of data set: cell-based. To be noted: added to Stage 3 medium (IL-10 20 ng/mL, IL-18 50 ng/mL); 4 hr co-culture, E:T 3:1 (FIG. 13A). On the procedure:
(§1) hiPSCs were prepared as described in CN108373998B. On Day −1, Embryoid body (EB) formation (Stage 1-1) was carried out by placing individualized hiPSCs in E8 medium containing 10 μM Blebbistatin in T25 flasks on a bellydancer and culture overnight. On Day 0, lateral mesoderm differentiation (Stage 1-2) was initiated by changing the medium to a Stage 1-2 differentiation medium comprising IF-4 basal medium and supplemented with BMP4 (25 ng/mL), VEGF (15 ng/mL), bFGF (0.5 ng/mL) and CHIR99021 (4 μM) for 2 days. On Day 2, lateral mesoderm differentiation (Stage 1-3) continued for 1 day in a Stage 1-3 differentiation medium comprising IF-4 basal medium and supplemented with BMP4 (25 ng/mL), VEGF (50 ng/mL) and bFGF (0.5 ng/mL) and CHIR99021 (1 μM). On Day 3, HE specification (Stage 1-4) was initiated by adding a Stage 1-4 differentiation medium comprising IF-4 basal medium and supplemented with VEGF (15 ng/mL), bFGF (5 ng/mL), XAV939 (5 μM) for 1 day. […] On Day 11 of co-culture, iNK cells were collected and stained with CD56-PE antibody (BD, #555516), the percentage of CD56+ cells was analyzed by flow cytometry. The cytotoxicity of Stage 3 iNK cells towards K562 cells was detected by CFSE/7AAD assay after 4 hr co-culture at E:T of 3:1.

The subject of another data set is iNK cells. Kind of data set: Stage 3 expansion and maturation of immature iNK cells co-cultured with feeder cells. Type of data set: cell-based, human. To be noted: IL-18 (10-50 ng/mL) with IL-2 (100 IU/mL) in Stage 3 vs IL-2 only, Day 14 of co-culture (FIG. 13B). The protocol:
as §1, with “(15” for “(50”, “14” for “11”, “#555516), and” for “#555516),”, “cytometry.” for “cytometry. The cytotoxicity of Stage 3 iNK cells towards K562 cells was detected by CFSE/7AAD assay after 4 hr co-culture at E:T of 3:1.”
hiPSCs were prepared as described in CN108373998B. […] D-1 and DO cells were analyzed by Microscopy. […] At the end of Stage 1-4, cells were analyzed by Microscopy and FACS. […] At the end of Stage 1-5, cells were analyzed by Microscopy and FACS. […]

In the case of “IL-18: interleukin added to Stage 3 expansion and maturation medium”, the “cytotoxicity of iNK cells towards K562 cells” value in the data set with K562 cells is “significantly improve”. The “expansion fold of iNK cells” value in the data set with iNK cells is given as “improve the expansion fold”.
